Results as given in US7572434B2, “Method for assessing the effect of a drug on long term memory formation” (Cold Spring Harbor Laboratory, priority 1994, dated 2009).

T1: dCREB2-a (UniProt Q9VWW0)
T1 sequence: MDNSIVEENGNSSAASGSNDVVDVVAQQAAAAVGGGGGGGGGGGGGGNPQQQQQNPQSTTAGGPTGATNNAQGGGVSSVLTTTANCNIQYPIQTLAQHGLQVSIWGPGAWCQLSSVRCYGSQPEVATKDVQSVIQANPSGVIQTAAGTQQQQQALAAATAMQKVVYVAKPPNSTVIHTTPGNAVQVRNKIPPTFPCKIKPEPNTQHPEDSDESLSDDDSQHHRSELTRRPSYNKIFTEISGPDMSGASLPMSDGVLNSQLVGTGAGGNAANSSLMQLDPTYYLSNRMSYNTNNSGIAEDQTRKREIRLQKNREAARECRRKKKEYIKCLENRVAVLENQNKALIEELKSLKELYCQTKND


Tests used:
dCREB2-a = target: T1, dCREB2-a; assay: cell_activity; conditions: F9 cells; dCREB2-a plus PKA relative to PKA alone
[1] = test system: PKA-responsive transcription (CRE-directed reporter) in F9 cells; assay: PKA-responsive transcription from the CRE-containing D(-71) CAT reporter in transiently transfected F9 cells; format: cell-based; conditions: cotransfected with dCREB2-a, PKA and reporter
Procedure: Undifferentiated F9 cells were maintained and transfected using the calcium phosphate method as described in Darrow, A. L. et al., “Maintenance and Use of F9 Teratocarcinoma Cells”, In Meth. Enzymol., v. 190 (1990), except that chloroquine was added to […] immediately before transfection and precipitates were washed off ten hours after transfection, at which time the dishes received fresh chloroquine-free medium. Amounts of DNA in transfections were made equivalent by adding RSV-0 where required. Cells were harvested 30 hours after transfection. Extracts were made by three cycles of freeze/thawing, with brief vortexing between cycles. Particulate matter was cleared from extracts by ten minutes of centrifugation in the cold. β-galactosidase assays were performed as described in Miller, J. H., Experiments in Molecular Genetics, Cold Spring Harbor Laboratory, Cold Spring Harbor, N.Y., 1972. CAT assays were performed as described in Sheen, J. Y. and B. Seed, Gene, 67: 271-277 (1988) using aliquots of extract heat-treated at 65° C. for ten minutes and centrifuged for ten minutes to remove debris. Results reported are from three experiments run on different days with at least three dishes per condition within each experiment. Error bars represent standard error of the mean, with error propagation taken into account (Grossman, M. and H. W. Norton, J. Hered., 71: 295-297 (1980)).
F9 cells were transiently transfected with 10 μg of D(−71) CAT plasmid as a CRE-directed reporter. 5 μg of RSV-βgal reporter was included in each dish as a normalization control for transfection efficiency. Different groups received 8 μg of dCREB2-a expression vector and 4 μg of PKA expression vector, separately or in combination. Results are expressed as CAT/Pgal enzyme activity ratios, standardized to values obtained with PKA-transfected dishes. […]
Two different dCREB2 isoforms, dCREB2-a and dCREB2-b, have opposite roles in PKA-responsive transcription. […] CREB-dependent changes in gene expression were measured using a cotransfected construct that has a CRE-containing promoter fused to a reporter gene.

Row | Molecule | activity (dCREB2-a) [fold] | effect on PKA-dependent activation by dCREB2-a [1]
1 | D(-71) CAT rat somatostatin promoter CRE fragment | 5.4 | 
2 | dCREB2-b: Drosophila dCREB2 isoform lacking exons 2 and 6, antagonist of dCREB2-a, expressed from RSV-dCREB2-b (protein) MDNSIVEENGNSSAASGSNDVVDVVAQQAAAAVGGGGGGGGGGGGGNPQQQQQNPQSTTAGGPTGATNNAQGGGVSSVLTTTANCNIQYPIQTLAQHGLQVQSVIQANPSGVIQTAAGTQQQQQALAAATAMQKVVYVAKPPNSTVIHTTPGNAVQIPPTFPCKIKPEPNTQHPEDSDESLSDDDSQHHRSELTRRPSYNKIFTEISGPDMSDNSGIAEDQTRKREIRLQKNREAARECRRKKKEYIKCLENRVAVLENQNKALIEELKSLKELYCQTKND |  | nearly complete block
3 | mLZ-dCREB2-b: leucine-zipper mutant of dCREB2-b; middle two leucines converted to valines (protein) MDNSIVEENGNSSAASGSNDVVDVVAQQAAAAVGGGGGGGGGGGGGNPQQQQQNPQSTTAGGPTGATNNAQGGGVSSVLTTTANCNIQYPIQTLAQHGLQVQSVIQANPSGVIQTAAGTQQQQQALAAATAMQKVVYVAKPPNSTVIHTTPGNAVQIPPTFPCKIKPEPNTQHPEDSDESLSDDDSQHHRSELTRRPSYNKIFTEISGPDMSDNSGIAEDQTRKREIRLQKNREAARECRRKKKEYIKCLENRVAVVENQNKAVIEELKSLKELYCQTKND |  | failed to block
